Reference: patent US20160340421A1 (Regeneron, published 2016)
Ends that are not written are not given here. * marks the point of attachment. Biotin = O=C1N[C@H]2[C@H](CS[C@H]2CCCCC(=O)*)N1

Legend:
[1] = target: T1, GDF11 (from serum of treated C57BL6 mice) (mouse, UniProt Q9Z1W4 297-405, limits assumed); assay: pull-down from serum of treated mice with anti human Fc beads, mass spectrometry
T1 sequence (looked up): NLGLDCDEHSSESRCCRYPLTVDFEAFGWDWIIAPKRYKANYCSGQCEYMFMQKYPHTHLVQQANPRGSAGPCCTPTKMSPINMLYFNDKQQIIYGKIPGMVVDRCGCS
Protocol: (§1) To examine the specificity of H4H1657N2 in vivo, C57BL6 mice were injected with drug, and serum from treated mice was subjected to a mass spectrometry based ligand “fishing” experiment. Briefly, drug (H4H1657N2, Control IV or isotype negative control) was injected multiple times (Day 0, D3, D7, D10) over a 14-day period into C57BL6 mice. Animals were sacrificed on D14 and serum was incubated with anti human Fc beads. The beads were washed and bound material was eluted with SDS-PAGE loading buffer. Eluted material was subjected to SDS-PAGE and gel slices corresponding to a molecular weight range of 5-20 kDa were excised. Samples were processed for mass spectrometry using standard reduction, alkylation and trypsinization conditions. Digests were separated on a nano C18 column and automatically spotted onto Bruker Anchor Targets. MALDI-MS (MS/MS) analysis (Bruker Ultraflextreme) was performed in an automated fashion, using LC-WARP (Bruker Daltonics). The mass spectra were searched using MASCOT (Matrix Science) and results were evaluated relative to the isotype control.

[2] = target: T2, Inhibin beta A chain (from serum of treated C57BL6 mice) (mouse, UniProt Q04998 309-424, limits assumed); assay: as above
T2 sequence (looked up): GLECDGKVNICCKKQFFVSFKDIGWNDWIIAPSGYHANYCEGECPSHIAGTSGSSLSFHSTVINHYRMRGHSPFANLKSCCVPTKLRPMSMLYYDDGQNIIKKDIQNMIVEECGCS
Protocol: as §1

[3] = target: T3, Human GDF8 homodimer (mature human Growth and Differentiation Factor-8) (human, UniProt O14793 267-375); assay: SPR Biacore T100, captured on anti-hFc, 37°C
T3 construct: also called hGDF8; myostatin
T3 sequence: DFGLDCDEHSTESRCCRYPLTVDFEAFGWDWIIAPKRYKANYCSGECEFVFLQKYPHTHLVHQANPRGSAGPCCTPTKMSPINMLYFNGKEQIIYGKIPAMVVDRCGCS
Protocol: (§2) Additional antigen binding experiments were conducted in which GDF8 and GDF11 were applied over a surface of selected anti-GDF8 antibodies and control antibodies at 25° C. and 37° C. Equilibrium dissociation constants (KD values) for antigen binding to selected antibodies were determined by surface kinetics using a real-time biosensor surface plasmon resonance assay (BIACORE™ T100). […] Various concentrations (2.5-0.625 nM, 2-fold dilutions) of hGDF8 homodimer or hGDF11 homodimer (or in some experiments, Activin A) were injected over the captured antibody surfaces, and antigen-antibody binding and dissociation were monitored in real time. Kinetic analysis was performed to calculate KD, dissociation rate constants (kd), association rate constants (ka) and half-life of antigen/antibody complex dissociation. (NB=no binding observed).

[4] = target: T3, Human GDF8 homodimer (mature human …); assay: cell-based or functional assay
Activin A = target: T4, Activin A (UniProt P08476 311-426); assay: SPR Biacore T100, 25°C
T4 sequence (looked up): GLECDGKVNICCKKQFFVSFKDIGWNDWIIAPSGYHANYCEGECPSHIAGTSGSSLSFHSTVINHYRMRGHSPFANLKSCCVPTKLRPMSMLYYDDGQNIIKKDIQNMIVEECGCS
Protocol: as §2

[5] = target: T5, hGDF8 peptide 12 (73-90), C-terminal biotinylated (human, cysteine pairing not given here); assay: Luminex peptide beads
T5 construct: also called peptide 12 C-term
T5 peptide: CCTPTKMSPINMLYFNGK-biotin
Excerpt: (§3) Fourteen peptides (Table 10) were generated from mature hGDF8 (SEQ ID NO:340). Unmodified peptides, N-terminal biotinylated peptides (N-term), or C-terminal biotinylated peptides (C-term) were used to test and localize antibody binding. Full-length hGDF8, hGDF11 and unmodified peptides were each individually amine-coupled to xMAP® Multi-Analyte COOH Microspheres (or beads). Each of the biotinylated peptides was bound to xMAP® Multi-Analyte LumAvidin Microspheres. Peptide-bound beads suspension were then mixed with an equal volume of blocking buffer (PBS, 1%13SA, 0.05% Tween20, 0.05% Sodium azide) and then distributed into a 96 well filter plate (Millipore, MULTISCREEN® BV). Control and test anti-hGDF8 antibodies, at 2.5 μg/ml were then added to the peptide-bound beads suspension and were allowed to bind to the beads at RT, overnight. The antibody-incubated beads were then washed twice with PBST (PBS+0.05% Tween20) and incubated with either Phycoerythrin (PE) conjugated anti-hFC or PE-conjugated anti-mFC antibodies at RT for 45 min. The beads were washed again and the antibody binding signal to various peptides were detected with either LUMINEX® 100™ or 200™ instruments.

[6] = target: T6, hGDF8 peptide 3 (17-42), N-terminal biotinylated (human, N-terminal biotin); assay: Luminex peptide beads
T6 construct: also called peptide 3 N-term
T6 peptide: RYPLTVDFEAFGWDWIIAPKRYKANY
Excerpt: as §3

[7] = target: T7, hGDF8 peptide 13 (75-105), unmodified (human); assay: Luminex peptide beads
T7 peptide: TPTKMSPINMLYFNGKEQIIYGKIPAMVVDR
Excerpt: as §3

[8] = target: T8, hGDF8 peptide 11 (65-72), N-terminal biotinylated (human); assay: Luminex peptide beads
T8 construct: also called peptide 11 N-term
T8 peptide: Biotin-NPRGSAGP
Excerpt: as §3

[9] = target: T3, Human GDF8 homodimer (mature human …); assay: SPR Biacore T100, captured on anti-hFc, 25°C
Protocol: as §2

binding result [1]: no binding
binding result [2]: no binding
Kd [3]: 0.0379 nM
T1/2 [3]: 1.52 h
IC50, luciferase bioassay, 0.5 nM GDF8 [4]: 0.78 nM
binding result (Activin A): no binding (tested: 2.5-0.625 nM)
binding result [5]: no binding (tested: 2.5 µg/ml)
binding result [6]: no binding (tested: 2.5 µg/ml)
binding result [7]: no binding (tested: 2.5 µg/ml)
binding result [8]: no binding (tested: 2.5 µg/ml)
Kd [9]: 0.0283 nM
T1/2 [9]: 3.37 h
B1: H4H1657N2 (antibody, V domains shown)
VH: EVQVLESGGDLVQPGGSLRLSCAASGFTFSAYAMTWVRQAPGKGLEWVSAISGSGGSAYYADSVKGRFTISRDNSKNTVYLQMNSLRAEDTAVYYCAKDGAWKMSGLDVWGQGTTVIVSS
VL: DIQMTQSPASLSASVGDRVTITCRASQDISDYLAWYQQKPGKIPRLLIYTTSTLQSGVPSRFRGSGSGTDFTLTISSLQPEDVATYYCQKYDSAPLTFGGGTKVEIK
notes: captured by anti-hFc, so human Fc
